This test concerns the target 新冠病毒野生型刺突蛋白(S蛋白)，在假病毒/真病毒表面 (SARS-CoV-2, UniProt P0DTC2 14-1273). As to the kind of experiment: cell-based or functional assay.

B1: 抗SARS-CoV-2全人源单克隆抗体ZWC12 (antibody, V domains shown)
VH: EVQLVESGGALVQPGGSLRLSCAASGFTFANYAMSWVRQAPGKGLEWVSSMTGSSIDSYYADSVKGRFTISRDNSRNTLYLQMNSLRAEDTAVYYCAKGELLWFGDLLHNWFDPWGRGTLVTVSS
VL: DIVMTQSPATLSVSPGERATLSCRASQSVSTNLAWYQQKPGQAPRLLIHGASTRATGLPARFSGSGSGTEFTLTISSLQSEDFAVYFCQQYDSWPGTFGPGTKVDIKR
With B1, the “假病毒中和 EC50 (luciferase, HEK293T)” value was found to be 1.04 µg/mL and the “真病毒中和 EC50 (Vero E6, crystal violet)” value came out at 25 µg/mL.
